According to PMC2265111 (The EMBO Journal, 2008):

Molecular target: the molecule itself
Experiment: crystal structure

B1: Rap1GAP Q204A (75–415) (domain or fragment)
chain: not shown
  stoichiometry N: 2
